# Measured values reported in ChEMBL document CHEMBL1143427, “Interactions of ceftobiprole with beta-lactamases from molecular classes A to D” (Antimicrob Agents Chemother, 2007).
# B1: Metallo beta-lactamase (Pseudomonas aeruginosa), Q6TUJ4 (protein)
# chain: YVHTSFEEVNGWGVVPKHGLVVLVNAEAYLIDTPFTAKDTEKLVTWFVERGYKIKGSISSHFHSDSTGGIEWLNSRSIPTYASELTNELLKKDGKVQATNSFSGVNYWLVKNKIEVFYPGPGHTPDNVVVWLP
# B2: Beta-lactamase (Serratia marcescens), P18539 (protein)
# chain: MTKMNRCAALIAALILPTAHAAQQQDIDAVIQPLMKKYGVPGMAIAVSVDGKQQIYPYGVASKQTGKPITEQTLFEVGSLSKTFTATLAVYAQQQSKLSFKDPASHYLPDVRGSAFDGVSLLNLATHTSGLPLFVPDDVTNNAQLMAYYRAWQPKHPAGSYRVYSNLGIGMLGMIAAKSLDQPFIQAMEQGMLPALGMSHTYVQVPAAQMANYAQGYSKDDKPVRVNPGPLDAESYGIKSNARDLIRYLDANLQQVKVASVARRWPRRTSVITSAGAFTQDLMWENYPYPVKLSRLIEGNNAGMIMNGTPATAITPPQPELRAGWYNKTGSTGGFSTYAVFIPAKNIAVEMLANKWFPNDDRVEAAYHIIQALEKR
# B3: Beta-lactamase (Providencia stuartii), O69773 (protein)
# chain: MDNSMKNIFRQGRLFIALSLAMTSISAFALTQQEVDDIIKPLMKQEQIPGMSVAISVNGKQAIYHYGVQSKQTQIPVSDRTLYEIGSLSKTFTATLATYAQIQGKLDFSQSVSHYLPELKGSAFDNVSVMNLATHTSGLSLFVPSDIKTNDQLMAYYQKWLPDNEVGQYRSYSNLGVGLLGIVTAKQLNMPFSQAMEKLMLPSLGLKHTYIHVPKSQEKYYAQGYNKQNQPVRLNLEILGPEAYGLKSNAKDLIRYLEINMQSIKVAKTWQEAIENTHTGVYLTDSFVQDMMWESYPWPVSLSQLLQGNRDDMALKPQKVELIKPAMAPEVRAYYNKTGSSNGFATYAIFIPEEKIAIVMLSNKWIPIPQRITATYQLLEKIER
# B4: Beta-lactamase (Klebsiella oxytoca), Q8RT60 (protein)
# chain: MIKSSWRKIAMLAAAVPLLLASGALWASTDAIHQKLTDLEKRSGGRLGVALINTADNSQILYRGDERFAMCSTSKVMAAAAVLKQSESNKEVVNKRLEINAADLVVWSPITEKHLQSGMTLAELSAATLQYSDNTAMNLIIGYLGGPEKVTAFARSIGDATFRLDRTEPTLNTAIPGDERDTSTPLAMAESLRKLTLGDALGEQQRAQLVTWLKGNTTGGQSIRAGLPESWVVGDKTGAGDYGTTNDIAVIWPEDHAPLILVTYFTQPQQDAKNRKEVLAAAAKIVTEGL
# Columns and labels:
# [1] = substrate: Nc1nc(/C(=N/O)C(=O)N[C@@H]2C(=O)N3C(C(=O)O)=C(/C=C4\CCN([C@@H]5CCNC5)C4=O)CS[C@H]23)ns1; assay: (§1) Ratio of Kcat to Km of Pseudomonas aeruginosa IMP1 assessed as drug hydrolysis by spectrophotometry
# [2] = substrate: CC1(C)S[C@@H]2[C@H](NC(=O)Cc3ccccc3)C(=O)N2[C@H]1C(=O)O; assay: as §1
# [3] = substrate: CC(C)(O/N=C(\C(=O)N[C@@H]1C(=O)N2C(C(=O)[O-])=C(C[n+]3ccccc3)CS[C@H]12)c1csc(N)n1)C(=O)O; assay: as §1
# [4] = substrate: O=C(Cc1cccs1)N[C@@H]1C(=O)N2C(C(=O)[O-])=C(C[n+]3ccccc3)CS[C@H]12; assay: as §1
# [5] = substrate: CO/N=C(\C(=O)N[C@@H]1C(=O)N2C(C(=O)[O-])=C(C[N+]3(C)CCCC3)CS[C@H]12)c1csc(N)n1; assay: as §1
# [6] = substrate: Nc1nc(/C(=N/O)C(=O)N[C@@H]2C(=O)N3C(C(=O)O)=C(/C=C4\CCN([C@@H]5CCNC5)C4=O)CS[C@H]23)ns1; assay: (§2) Activity of Serratia marcescens AmpC assessed as drug hydrolysis by spectrophotometry
# [7] = substrate: CC1(C)S[C@@H]2[C@H](NC(=O)Cc3ccccc3)C(=O)N2[C@H]1C(=O)O; assay: as §2
# [8] = substrate: O=C(Cc1cccs1)N[C@@H]1C(=O)N2C(C(=O)O)=C(/C=C/c3ccc([N+](=O)[O-])cc3[N+](=O)[O-])CS[C@H]12; assay: as §2
# [9] = substrate: CC(C)(O/N=C(\C(=O)N[C@@H]1C(=O)N2C(C(=O)[O-])=C(C[n+]3ccccc3)CS[C@H]12)c1csc(N)n1)C(=O)O; assay: as §2
# [10] = substrate: O=C(Cc1cccs1)N[C@@H]1C(=O)N2C(C(=O)[O-])=C(C[n+]3ccccc3)CS[C@H]12; assay: as §2
# [11] = substrate: CO/N=C(\C(=O)N[C@@H]1C(=O)N2C(C(=O)[O-])=C(C[N+]3(C)CCCC3)CS[C@H]12)c1csc(N)n1; assay: as §2
# [12] = substrate: Nc1nc(/C(=N/O)C(=O)N[C@@H]2C(=O)N3C(C(=O)O)=C(/C=C4\CCN([C@@H]5CCNC5)C4=O)CS[C@H]23)ns1; assay: (§3) Ratio of Kcat to Km of Serratia marcescens AmpC assessed as drug hydrolysis by spectrophotometry
# [13] = substrate: CC1(C)S[C@@H]2[C@H](NC(=O)Cc3ccccc3)C(=O)N2[C@H]1C(=O)O; assay: as §3
# [14] = substrate: O=C(Cc1cccs1)N[C@@H]1C(=O)N2C(C(=O)O)=C(/C=C/c3ccc([N+](=O)[O-])cc3[N+](=O)[O-])CS[C@H]12; assay: as §3
# [15] = substrate: CC(C)(O/N=C(\C(=O)N[C@@H]1C(=O)N2C(C(=O)[O-])=C(C[n+]3ccccc3)CS[C@H]12)c1csc(N)n1)C(=O)O; assay: as §3
# [16] = substrate: O=C(Cc1cccs1)N[C@@H]1C(=O)N2C(C(=O)[O-])=C(C[n+]3ccccc3)CS[C@H]12; assay: as §3
# [17] = substrate: CO/N=C(\C(=O)N[C@@H]1C(=O)N2C(C(=O)[O-])=C(C[N+]3(C)CCCC3)CS[C@H]12)c1csc(N)n1; assay: as §3
# [18] = substrate: Nc1nc(/C(=N/O)C(=O)N[C@@H]2C(=O)N3C(C(=O)O)=C(/C=C4\CCN([C@@H]5CCNC5)C4=O)CS[C@H]23)ns1; assay: (§4) Activity of Providencia stuartii AmpC assessed as drug hydrolysis by spectrophotometry
# [19] = substrate: CC1(C)S[C@@H]2[C@H](NC(=O)Cc3ccccc3)C(=O)N2[C@H]1C(=O)O; assay: as §4
# [20] = substrate: CC(C)(O/N=C(\C(=O)N[C@@H]1C(=O)N2C(C(=O)[O-])=C(C[n+]3ccccc3)CS[C@H]12)c1csc(N)n1)C(=O)O; assay: as §4
# [21] = substrate: O=C(Cc1cccs1)N[C@@H]1C(=O)N2C(C(=O)[O-])=C(C[n+]3ccccc3)CS[C@H]12; assay: as §4
# [22] = substrate: CO/N=C(\C(=O)N[C@@H]1C(=O)N2C(C(=O)[O-])=C(C[N+]3(C)CCCC3)CS[C@H]12)c1csc(N)n1; assay: as §4
# [23] = substrate: Nc1nc(/C(=N/O)C(=O)N[C@@H]2C(=O)N3C(C(=O)O)=C(/C=C4\CCN([C@@H]5CCNC5)C4=O)CS[C@H]23)ns1; assay: (§5) Ratio of Kcat to Km of Providencia stuartii AmpC assessed as drug hydrolysis by spectrophotometry
# [24] = substrate: CC1(C)S[C@@H]2[C@H](NC(=O)Cc3ccccc3)C(=O)N2[C@H]1C(=O)O; assay: as §5
# [25] = substrate: CC(C)(O/N=C(\C(=O)N[C@@H]1C(=O)N2C(C(=O)[O-])=C(C[n+]3ccccc3)CS[C@H]12)c1csc(N)n1)C(=O)O; assay: as §5
# [26] = substrate: O=C(Cc1cccs1)N[C@@H]1C(=O)N2C(C(=O)[O-])=C(C[n+]3ccccc3)CS[C@H]12; assay: as §5
# [27] = substrate: CO/N=C(\C(=O)N[C@@H]1C(=O)N2C(C(=O)[O-])=C(C[N+]3(C)CCCC3)CS[C@H]12)c1csc(N)n1; assay: as §5
# [28] = substrate: CO/N=C(\C(=O)N[C@@H]1C(=O)N2C(C(=O)O)=C(COC(C)=O)CS[C@H]12)c1csc(N)n1; assay: (§6) Activity of Klebsiella oxytoca beta-lactamase K1assessed as drug hydrolysis by spectrophotometry
# [29] = substrate: Nc1nc(/C(=N/O)C(=O)N[C@@H]2C(=O)N3C(C(=O)O)=C(/C=C4\CCN([C@@H]5CCNC5)C4=O)CS[C@H]23)ns1; assay: as §6
# [30] = substrate: CC1(C)S[C@@H]2[C@H](NC(=O)Cc3ccccc3)C(=O)N2[C@H]1C(=O)O; assay: as §6
# [31] = substrate: CC(C)(O/N=C(\C(=O)N[C@@H]1C(=O)N2C(C(=O)[O-])=C(C[n+]3ccccc3)CS[C@H]12)c1csc(N)n1)C(=O)O; assay: as §6
# [32] = substrate: O=C(Cc1cccs1)N[C@@H]1C(=O)N2C(C(=O)[O-])=C(C[n+]3ccccc3)CS[C@H]12; assay: as §6
# [33] = substrate: CO/N=C(\C(=O)N[C@@H]1C(=O)N2C(C(=O)[O-])=C(C[N+]3(C)CCCC3)CS[C@H]12)c1csc(N)n1; assay: as §6
# [34] = substrate: CO/N=C(\C(=O)N[C@@H]1C(=O)N2C(C(=O)O)=C(COC(C)=O)CS[C@H]12)c1csc(N)n1; assay: (§7) Ratio of Kcat to Km of Klebsiella oxytoca beta-lactamase K1 assessed as drug hydrolysis by spectrophotometry
# [35] = substrate: Nc1nc(/C(=N/O)C(=O)N[C@@H]2C(=O)N3C(C(=O)O)=C(/C=C4\CCN([C@@H]5CCNC5)C4=O)CS[C@H]23)ns1; assay: as §7
# [36] = substrate: CC1(C)S[C@@H]2[C@H](NC(=O)Cc3ccccc3)C(=O)N2[C@H]1C(=O)O; assay: as §7
# [37] = substrate: CC(C)(O/N=C(\C(=O)N[C@@H]1C(=O)N2C(C(=O)[O-])=C(C[n+]3ccccc3)CS[C@H]12)c1csc(N)n1)C(=O)O; assay: as §7
# [38] = substrate: O=C(Cc1cccs1)N[C@@H]1C(=O)N2C(C(=O)[O-])=C(C[n+]3ccccc3)CS[C@H]12; assay: as §7
# [39] = substrate: CO/N=C(\C(=O)N[C@@H]1C(=O)N2C(C(=O)[O-])=C(C[N+]3(C)CCCC3)CS[C@H]12)c1csc(N)n1; assay: as §7
protein,measurement,setting,value
B1,kcat/Km,[1],740000 M⁻¹ s⁻¹
same,kcat/Km,[2],560000 M⁻¹ s⁻¹
same,kcat/Km,[3],90000 M⁻¹ s⁻¹
same,kcat/Km,[4],75000 M⁻¹ s⁻¹
same,kcat/Km,[5],150000 M⁻¹ s⁻¹
B2,Km,[6],320 µM
same,kcat,[6],< 2.7 s⁻¹
same,Km,[7],2.1 µM
same,kcat,[7],19 s⁻¹
same,Km,[8],14 µM
same,kcat,[8],840 s⁻¹
same,Km,[9],570 µM
same,kcat,[9],< 0.05 s⁻¹
same,Km,[10],680 µM
same,kcat,[10],2000 s⁻¹
same,Km,[11],> 800 µM
same,kcat,[11],< 0.55 s⁻¹
same,kcat/Km,[12],< 8400 M⁻¹ s⁻¹
same,kcat/Km,[13],9e+06 M⁻¹ s⁻¹
same,kcat/Km,[14],6e+07 M⁻¹ s⁻¹
same,kcat/Km,[15],< 88 M⁻¹ s⁻¹
same,kcat/Km,[16],3.1e+06 M⁻¹ s⁻¹
same,kcat/Km,[17],< 690 M⁻¹ s⁻¹
B3,Km,[18],260 µM
same,kcat,[18],0.16 s⁻¹
same,Km,[19],14 µM
same,kcat,[19],3.3 s⁻¹
same,Km,[20],26 µM
same,kcat,[20],0.19 s⁻¹
same,Km,[21],920 µM
same,kcat,[21],530 s⁻¹
same,Km,[22],780 µM
same,kcat,[22],3 s⁻¹
same,kcat/Km,[23],620 M⁻¹ s⁻¹
same,kcat/Km,[24],250000 M⁻¹ s⁻¹
same,kcat/Km,[25],7300 M⁻¹ s⁻¹
same,kcat/Km,[26],580000 M⁻¹ s⁻¹
same,kcat/Km,[27],3800 M⁻¹ s⁻¹
B4,Km,[28],550 µM
same,kcat,[28],88 s⁻¹
same,Km,[29],32 µM
same,kcat,[29],230 s⁻¹
same,Km,[30],40 µM
same,kcat,[30],1100 s⁻¹
same,Km,[31],140 µM
same,kcat,[31],0.018 s⁻¹
same,Km,[32],100 µM
same,kcat,[32],700 s⁻¹
same,Km,[33],1000 µM
same,kcat,[33],59 s⁻¹
same,kcat/Km,[34],160000 M⁻¹ s⁻¹
same,kcat/Km,[35],7.2e+06 M⁻¹ s⁻¹
same,kcat/Km,[36],2.8e+07 M⁻¹ s⁻¹
same,kcat/Km,[37],130 M⁻¹ s⁻¹
same,kcat/Km,[38],7e+06 M⁻¹ s⁻¹
same,kcat/Km,[39],59000 M⁻¹ s⁻¹
